Results: US10444224B2, “Method for RNA detection and quantification” (Cornell University, priority 2011, dated 2019)
Positions count from the first letter of the chain named. Several values for one entry are separate records, joined by “and”; a condition that tells them apart may be missing. Identical values can stand only once. Entries after “also recorded” stand apart in the source; their conditions may differ.

Experiments:
[1] = Bell et al. 2000; cited from earlier work
[2] = Emission and excitation of aptamer-DFAN complex; type: physicochemical; settings: aptamer with DFAN
[3] = test system: endogenous SAM levels in living E. coli cells; assay: Live cell imaging of SAM accumulation with the SAM sensor; type: cell-based; parameters: average increase in SAM levels upon treatment with methionine: dose or concentration left out as unconfirmed
Experimental: Expression of the SAM aptamer and intracellular imaging was performed as described above for the ADP sensor: BL21-A Star E. coli cells (Invitrogen) were transformed with 40 ng of plasmid DNA expressing the tRNA-sensor chimeras in pET28c under the control of a T7 promoter. Cells were plated, grown overnight and single colonies were picked for inoculation in LB-Kan. At OD600=0.4, 1 mM of IPTG was added to the culture and shaking was continued at 37° C. for more 2 hours. 100 μL of culture was then removed, spun down to pellet the culture, and resuspended in 2 mL of pH 6.0 M9 minimal media. A 200 μl aliquot of resuspended culture was then plated on PLL-coated 24-well glass-bottom dishes (MatTek) and incubated for 45 minutes at 37° C. Adherent cells were washed twice and then incubated with 200 μM DFHBI in pH 6.0 M9 minimal media for 2 hours at 37° C. Cells were then treated with methionine alone or methionine with inhibitors by adding 2 μl of a 100× stock of the compound to a final concentration of 50 μg/ml for L-methionine, 25 μM for adenosine periodate, and 2.5 μM for MT-DADMe-ImmA. Live fluorescence images were taken with a CoolSnap HQ2 CCD camera through a 60× oil objective mounted on a Nikon TE2000 microscope and analyzed with the NIS-Elements software. The filter set used was a sputter coated filter cube with excitation filter 470/40, dichroic mirror 495 (long pass) and emission filter 525/50 (Chroma Technology).
Cells transformed with SAM sensors were grown overnight in LB-Kan. Cultures were then diluted to OD600=0.1 in 200 mL LB-Kan and grown to OD600=0.4. Cells were then induced for 2 hours with 1 mM IPTG at 37° C. with constant shaking. The entire culture was centrifuged for 5 min at 1,000×g, pellets were resuspended and washed once with M9 media and then resuspended in […] of M9 media containing 200 μM DFHBI and divided into two samples. Methionine (50 μg/ml) or vehicle was then added to either sample and cultures were incubated between 32-37° C. 25 ml aliquots were removed from methionine- and vehicle-treated sample at each time point, centrifuged for 5 min at 1,000×g, and flash frozen in liquid nitrogen. Cells were thawed on ice and lysed by resuspending the pellet in 300 μl of cold 4% perchloric acid. Insoluble material was then pelleted by spinning at 1,000×g for 5 min and the supernatant was transferred to a dialysis spin column with a 10,000 molecular weight cut off (Amicon) and spun at 10,000×g for 10 min at 4° C. A portion of the flow through (50 μl) was then injected on a Zorbax C8 column (Agilent) on an Agilent 1100 HPLC. Samples were loaded and eluted for 15 min with an aqueous buffer containing 3.6% acetonitrile, 40 mM ammonium phosphate, and 5 mM sodium 1-heptanesulfonate which was brought to pH 5.0 with hydrochloric acid. After each sample was eluted, the column was washed with a gradient of 3.6-25% acetonitrile for 30 min prior to the next samples being injected. SAM standards were used to calibrate SAM levels measured using this assay.
Population analysis was carried out using NIS-Elements software. Individual cells in a captured field were manually traced as Region of Interests (ROIs) and tracked through the different time points of image capture. Fluorescence intensity was then calculated by dividing the total fluorescence by the area for each ROI, which gives the mean intensity per unit area. Fold increase in fluorescence over time is calculated as the ratio of mean intensity at a desired time point and at time zero. Values in fold increase in fluorescence over time are plotted as frequency distributions or further used in statistical analyses.

[4] = Spinach-based RNA sensor fluorescence in response to SAM; type: biochemical
Experimental: Dose-response curves for each sensor in response to the target metabolite were determined by measuring the increase in fluorescence as a function of increasing target concentration in the presence of a fixed concentration of RNA sensor (10-50 nM) and a fixed concentration of fluorophore (10 μM). Curves were determined using a nonlinear regression analysis in Prism software and matched by least squares fitting to a standard dose-response model for 1:1 complexation.
The optimal sensors were chosen based on their low fluorescence in the absence of metabolite and the relative increase in fluorescence upon binding to the metabolite.

[5] = Sensor activation rate, SAM sensor; type: biochemical; settings: 1 mM SAM, 37° C.
Experimental: (§1) A solution of RNA sensor (1 μM) and DFHBI (10 μM) was incubated with continuous stirring at 37° C. in a buffer containing 40 mM HEPES pH 7.4, 125 mM KCl and 1 mM MgCl2. The target metabolite (1 mM) was then rapidly added to the stirring solutions and fluorescence emission was recorded over a 15 min period under continuous illumination at 37° C. using the following instrumental parameters: excitation wavelength, 460 nm; emission wavelength, 500 nm; increment of data point collection, 0.05 s; slit widths, 10 nm. The fluorescence increase was then plotted against exposure time and normalized to the maximum intensity of each fluorophore.

[6] = Sensor activation rate, ADP sensor; type: biochemical; settings: 1 mM ADP, 37° C.
Experimental: as §1

[7] = test system: endogenous ADP levels in living E. coli cells; assay: Live cell imaging of ADP dynamics with the ADP sensor; type: cell-based; settings: 200 μM DFHBI
Experimental: BL21-A Star E. coli cells (Invitrogen) were transformed with 40 ng of plasmid DNA expressing the tRNA-sensor chimeras in pET28c under the control of a T7 promoter. Cells were plated, grown overnight and single colonies were picked for inoculation in Luria Broth containing kanamycin (LB-Kan). At OD600=0.4, 1 mM of IPTG was added to the culture and shaking was continued at 37° C. for more 2 hours. 100 uL of culture was then removed, spun down to pelleted the culture, and resuspended in 2 mL of pH 6.0 M9 minimal media. A 200 μl aliquot of resuspended culture was then plated on poly-L-lysine (PLL)-coated 24-well glass-bottom dishes (MatTek) and incubated for 45 minutes at 37° C. Adherent cells were washed twice and then incubated with 200 μM DFHBI in pH 6.0 M9 minimal media for 45 min at 37° C. Cells then were washed twice and incubated with M9 media containing 200 μM DFHBI and the appropriate carbon source (2 mg/ml glucose, 6.65 mg/ml potassium acetate, 4.05 mg/ml glycerol or 5.51 mg/ml succinate). Live fluorescence images were taken with a CoolSnap HQ2 CCD camera through a 60× oil objective mounted on a Nikon TE2000 microscope and analyzed with the NIS-Elements software. The filter set used was a sputter coated filter cube with excitation filter 470/40, dichroic mirror 495 (long pass) and emission filter 525/50 (Chroma Technology).
Cells transformed with ADP sensor were grown overnight in LB-Kan. Cultures were then diluted to OD600=0.1 in 200 mL LB-Kan and grown to OD600=0.4. Cells were then induced for 2 hours with 1 mM IPTG at 37° C. with constant shaking. The entire culture was split in two samples and then placed in a centrifuged for 5 min at 1,000×g. Pellets were then washed once and resuspended in […] of M9 media containing 200 μM DFHBI and either 2.00 mg/ml glucose or 6.68 mg/ml potassium acetate as the carbon source. […] Aliquots of culture were removed every 30 min, pelleted, lysed, and ADP levels were measured with an ADP Fluorometric Assay Kit (Abcam) according to manufacturer's instructions.

[8] = Spinach-based RNA sensor fluorescence in response to ADP; type: biochemical
[9] = Photobleaching curves on glass slides under continuous illumination; type: physicochemical; settings: immobilized on glass slides, 130 W mercury lamp, 45 min
Experimental: Photobleaching experiments were performed on fluorescein, EGFP and 24-2-DFHBI complexes immobilized on chemically functionalized glass slides (MicroSurfaces). To immobilized fluorescein, fluorescein cadaverine (Sigma-Aldrich) was reacted in 40 mM HEPES pH 8.0 with NHS-activated glass slides for 2 h at 25° C. Slides were then incubated in 100 mM Tris pH 8.0 to quench any unreacted NHS-activated sites. […] To immobilize 24-2-DFHBI, a 3′ amine modified 21-nt DNA oligo (sequence: 5′-GGTTGTAAGTTTTAGGTTGCC-NH2-3′, SEQ ID NO: 45; Integrated DNA Technologies) was reacted with NHS-activated glass slides. Unreacted NHS-activated sites were blocked as above. 24-2 RNA was then in vitro synthesized with a 5′ overhang complimentary to the immobilized DNA oligo. Purified 24-2 RNA was denatured at 65° C. and incubated with the slide at 25° C. for 20 min to allow hybridization to the immobilized oligonucleotide. […] Images were captured every 10 s with a CoolSnap HQ2 CCD camera through a 10× air objective mounted on a Nikon TE2000 microscope and analyzed with the NIS-Elements software. […] Total fluorescence was then plotted against exposure time and normalized to the maximum intensity of each fluorophore.

[10] = target: streptavidin (Streptomyces avidinii, UniProt P22629); assay: Spinach-based protein sensor fluorescence activation; type: biochemical; settings: micromolar concentrations of protein, DFHBI included
Sequence of streptavidin (P22629 25-183, species assumed): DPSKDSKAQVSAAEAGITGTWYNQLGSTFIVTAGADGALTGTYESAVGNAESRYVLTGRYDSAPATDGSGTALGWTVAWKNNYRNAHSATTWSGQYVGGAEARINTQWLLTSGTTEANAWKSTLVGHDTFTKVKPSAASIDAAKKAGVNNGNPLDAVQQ
From the text: Using the same strategy from Example 5-7, a streptavidin aptamer (Srisawat and Engelke, “Streptavidin Aptamers: Affinity Tags for the Study of RNAs and Ribonucleoproteins, RNA 7:632-41 (2001), which is hereby incorporated by reference in its entirety) was fused to Spinach, and the transducer domain was optimized. The resulting RNA molecule is illustrated in FIG. 16A. The sensor was separately exposed to solutions containing micromolar concentrations of streptavidin, ovalalbumin, BSA, and lysozyme. […] Thus, the approach is generalizable not just to small molecules, but also proteins.

CC1=NC(=Cc2ccc(O)cc2)C(=O)N1C [HBI, 4-(4-hydroxybenzylidene)-1,2-dimethyl-imidazol-5-one]
pKa [1]: 8.1

B1: SEQ ID NO: 59: RNA aptamer listed for fluorophore DFAN (nucleic acid)
chain: GGGAGACGCAACUGAAUGAAAUACUUGGGAUGGUAAUGGCCUGGAGCUGCUUCGGCAGACCCGUGCAAGGACGUGGGAGAGGGGUCCGUAACUAGUCGCGUCAC
modifications: listed as RNA, chemistry not given here
Em [2]: Em = 550 nm
Ex [2]: Ex = 480 nm

B2: SAM sensor: Spinach-based turn-on RNA sensor for SAM, transducer stem 1 (nucleic acid)
chain: GACGCGACUGAAUGAAAUGGUGAAGGACGGGUCCACGAAAGGAUGGCGGAAACGCCAGAUGCCUUGUAACCGAAAGGGUUGUUGAGUAGAGUGUGAGCUCCGUAACUAGUCGCGUC
modifications: chemistry not given here
average increase in sensor fluorescence in methionine-treated cells ([3]; 50 μg/ml methionine, 3 hr): over 6 fold
average increase in SAM levels upon treatment with methionine ([3]; methionine, 180 min (FIG. 9D)): six-fold
increase in fluorescence in the presence of SAM ([4]; 10 μM DFHBI, 1 mM SAM, versus no SAM): 25 fold and 24 fold
molecular discrimination: fluorescence with methionine or adenosine ([4]; 1 mM): negligibly fluorescent; also recorded: negligible signal above background
molecular discrimination: fluorescence with SAH ([4]; 1 mM SAH): only minimal fluorescence; also recorded: negligible signal
EC50 ([4]; dose-response, 10 μM fluorophore, read-out: half-maximal fluorescence (EC50), SAM): 120 µM
time to maximal fluorescence after SAM addition ([5]; 1 μM RNA sensor, 10 μM DFHBI): ≤ 10 min
time to increase in fluorescence after SAM addition [5]: less than 10 s

B3: ADP sensor: Spinach-based turn-on RNA sensor for ADP, transducer stem 3 (nucleic acid)
chain: GACGCGACUGAAUGAAAUGGUGAAGGACGGGUCCAGCACGAGGGGGAAACCCCGGACAAUCAGACACGGUGCUUGUUGAGUAGAGUGUGAGCUCCGUAACUAGUCGCGUC
modifications: listed as RNA, chemistry not given here
time to increase in fluorescence after ADP addition [6]: less than 10 s
sensor fluorescence after switch to succinate or glycerol [7]: did not substantially increase fluorescence
increase in sensor fluorescence over baseline after switch from glucose to acetate media ([7]; by 3 hr): ~6 fold
increase in sensor fluorescence over baseline after switch from glucose to acetate media ([7]; within 30 min): 1.8 fold
increase in fluorescence in the presence of ADP ([8]; 10 μM DFHBI, 1 mM ADP, versus no ADP): 20 fold and 18 fold
molecular discrimination: activation by ATP, AMP, cAMP, NAD+ ([8]; 1 mM competing molecules): negligibly activated; also recorded: specific for ADP
EC50 ([8]; dose-response, 10 μM fluorophore, read-out: half-maximal fluorescence (EC50), ADP): 270 µM

B4: Spinach: first generation derivative of 24-2, DFHBI-binding RNA aptamer (nucleic acid)
chain 1: GACGCGACUGAAUGAAAUGGUGAAGGACGGGUCCAGGUGUGGCUGCUUCGGCAGUGCAGCUUGUUGAGUAGAGUGUGAGCUCCGUAACUAGUCGCGUC
chain 2: B4 chain 1 with G6A
modifications: listed as RNA, chemistry not given here
photobleaching during continuous illumination [9]: remarkable resistance to photobleaching

B5: Spinach-streptavidin sensor: Spinach-based streptavidin sensor RNA molecule (nucleic acid)
chain: GACGCGACUGAAUGAAAUGGUGAAGGACGGGUCCACGACCGACCAGAAUCAUGCAAGUGCGUAAGAUAGUCGCGGGCCGGGGUUGUUGAGUAGAGUGUGAGCUCCGUAACUAGUCGCGUC
modifications: listed as RNA, chemistry not given here
notes: Spinach-based streptavidin sensor RNA molecule
fluorescence activation by BSA, ovalbumin or lysozyme [10]: fail to increase fluorescence above background levels
fluorescence activation by streptavidin [10]: specific fluorescence activation occurs only in solutions that contained streptavidin
